# According to patent US20210324076A1 (AMPHIVENA THERAPEUTICS, published 2021):
# Substitutions are numbered along the chain they refer to.
# B1: CD33/CD3 2×2 T-cell engager 10 (bispecific antibody)
# chain: DIQMTQSPSSLSASVGDRVTITCRSSTGAVTTSNYANWVQQKPGKAPKGLIGGTNKRAPGVPSRFSGSLIGDKATLTISSLQPEDFATYYCALWYSNLWVFGQGTKVEIKGGSGGSQVQLVQSGAEVKKPGASVKVSCKASGYTFTSYDINWVRQAPGQGLEWMGWMNPNSGNTGFAQKFQGRVTMTRDTSTSTVYMELSSLRSEDTAVYYCARDRANTDYSFGMDVWGQGTLVTVSSGGSGQSVLTQPPSASGTPGQRVTISCSGSRSNIGSNTVNWYQQLPGTAPKLLIYGNNQRPSGVPDRFSGSKSGTSASLAISGLQSEDEADYYCATWDDSLIGWVFGGGTKLTVLGGSGGSEVQLVESGGGLVQPGGSLRLSCAASGFTFSTYAMNWVRQAPGKGLEWVGRIRSKYNNYATYYADSVKDRFTISRDDSKNSLYLQMNSLKTEDTAVYYCARHGNFGNSYVSWFAYWGQGTLVTVSSAAAGSHHHHHH
# B2: CD33/CD3 2×2 T-cell engager 09 (bispecific antibody)
# chain: B1 chain with Y221F, F223Y
# B3: CD33/CD3 2×2 T-cell engager 13 (bispecific antibody)
# chain: B1 chain with D72T, K73D, A74F, N218V, S222Y, F223Y
# B4: CD33/CD3 2×2 T-cell engager 03 (bispecific antibody)
# chain: B1 chain with S63A, L69G, I70S, D72T, K73D, A74F
# B5: CD33/CD3 2×2 T-cell engager 15 (bispecific antibody)
# chain: B1 chain with G49A, W469Y
# B6: CD33/CD3 2×2 T-cell engager 11 (bispecific antibody)
# chain: B1 chain with F223L
# B7: CD33/CD3 2×2 T-cell engager 02 (bispecific antibody)
# chain: B1 chain with S63A, L69G, I70S, D72T, K73D, A74F, N218V, S222Y, F223Y
# B8: CD33/CD3 2×2 T-cell engager 04 (bispecific antibody)
# chain: B1 chain with S63A, L69G, I70S, D72T, K73D, A74F, F223L
# B9: CD33/CD3 2×2 T-cell engager 01 (bispecific antibody)
# chain: B1 chain with S63A, L69G, I70S, D72T, K73D, A74F, Y221F, F223Y
# B10: CD33/CD3 2×2 T-cell engager 23 (bispecific antibody)
# chain: DIQMTQSPSSLSASVGDRVTITCRSSTGAVTTSNYANWVQQKPGKAPKGLIGGTNKRAPGVPSRFSGSLIGTDFTLTISSLQPEDFATYYCALWYSNLWVFGQGTKVEIKGGSGGSQVQLVQSGAEVKKPGSSVKVSCKASGGTFSSYGISWVRQAPGQGLEWMGGIIPIFGSAHYAQKFQGRVTITADESTSTAYMELSSLRSEDTAVYYCAREYYYDSSEWAFDIWGQGTLVTVSSGGSGQSVLTQPPSASGTPGQRVTISCSGSSSNIGSNTVKWYQQLPGTAPKLLIYSNNQRSSGVPDRFSGSKSGSSASLAISGLQSEDEADYYCAAWDDSLNGYVFGGGTKLTVLGGSGGSEVQLVESGGGLVQPGGSLRLSCAASGFTFSTYAMNWVRQAPGKGLEWVGRIRSKYNNYATYYADSVKDRFTISRDDSKNSLYLQMNSLKTEDTAVYYCARHGNFGNSYVSWFAYWGQGTLVTVSS
# B11: CD33/CD3 2×2 T-cell engager 17 (bispecific antibody)
# chain: DIQMTQSPSSLSASVGDRVTITCRSSTGAVTTSNYANWVQQKPGKAPKALIGGTNKRAPGVPSRFSGSLIGDKATLTISSLQPEDFATYYCALWYSNLWVFGQGTKVEIKGGSGGSQVQLVQSGAEVKKPGESLKISCKGSGYSFTSYWIGWVRQMPGKGLEWMGIIYPGDSDTRYSPSFQGQVTISADKSISTAYLQWSSLKASDTAMYYCARHKRGSDAFDIWGQGTTVTVSSGGSGQSVLTQPPSVSGAPGQRVTISCTGSSSNIGAGYDVHWYQQLPGTAPKLLIYGNSNRPSGVPDRFSGSKSGTSASLAITGLQAEDEADYYCQSYDSSLSDVVFGGGTKLTVLGGSGGSEVQLVESGGGLVQPGGSLRLSCAASGFTFSTYAMNWVRQAPGKGLEWVGRIRSKYNNYATYYADSVKDRFTISRDDSKNSLYLQMNSLKTEDTAVYYCARHGNFGNSYVSYFAYWGQGTLVTVSSAAAGSHHHHHH
# B12: CD33/CD3 2×2 T-cell engager 20 (bispecific antibody)
# chain: DIQMTQSPSSLSASVGDRVTITCRSSTGAVTTSNYANWVQQKPGKAPKGLIGGTNKRAPGVPSRFSGSLIGTDFTLTISSLQPEDFATYYCALWYSNLWVFGQGTKVEIKGGSGGSQVQLVQSGAEVKKPGASVKVSCKASGYTFTSYYMHWVRQAPGQGLEWMGIINPSGGSTSYAQKFQGRVTMTRDTSTSTVYMELSSLRSEDTAVYYCARDVVPAAIDYYGMDVWGQGTTVTVSSGGSGQSVLTQPPSASGTPGQRVTISCSGSSSNIGSNTVNWYQQLPGTAPKLLIYSDNQRPSGVPDRFSGSKSGSSASLAISGLQSDDEADYYCATWDDSLNGAVFGGGTKLTVLGGSGGSEVQLVESGGGLVQPGGSLRLSCAASGFTFSTYAMNWVRQAPGKGLEWVGRIRSKYNNYATYYADSVKDRFTISRDDSKNSLYLQMNSLKTEDTAVYYCARHGNFGNSYVSWFAYWGQGTLVTVSSAAAGSHHHHHH
# B13: CD33/CD3 2×2 T-cell engager 05 (bispecific antibody)
# chain: DIQMTQSPSSLSASVGDRVTITCRSSTGAVTTSNYANWVQQKPGKAPKGLIGGTNKRAPGVPARFSGSGSGTDFTLTISSLQPEDFATYYCALWYSNLWVFGQGTKVEIKGGSGGSQVQLVQSGAEVKKPGASVKVSCKASGYTFTSYDINWVRQAPGQGLEWMGWMNPNSGNTGFAQKFQGRVTMTRDTSTSTVYMELSSLRSEDTAVYYCARDRANTDYSFGMDVWGQGTLVTVSSGGSGGQSVLTQPPSASGTPGQRVTISCSGSRSNIGSNTVNWYQQLPGTAPKLLIYGNNQRPSGVPDRFSGSKSGTSASLAISGLQSEDEADYYCATWDDSLIGWVFGGGTKLTVLGGSGGSEVQLVESGGGLVQPGGSLRLSCAASGFTFSTYAMNWVRQAPGKGLEWVGRIRSKYNNYATYYADSVKDRFTISRDDSKNSLYLQMNSLKTEDTAVYYCARHGNFGNSYVSWFAYWGQGTLVTVSSAAAGSHHHHHH
# B14: CD33/CD3 2×2 T-cell engager 06 (bispecific antibody)
# chain: B13 chain with F223L
# B15: CD33/CD3 2×2 T-cell engager 21 (bispecific antibody)
# chain: DIQMTQSPSSLSASVGDRVTITCRSSTGAVTTSNYANWVQQKPGKAPKALIGGTNKRAPGVPSRFSGSLIGDKATLTISSLQPEDFATYYCALWYSNLWVFGQGTKVEIKGGSGGSQVQLVQSGAEVKKPGSSVKVSCKASGGTFSSYAISWVRQAPGQGLEWMGGIYPIFGSANYAQKFQGRVTITADESTSTAYMELSSLRSEDTAVYYCAREYYYDSSEWAFDIWGQGTLVTVSSGGSGQSVLTQPPSASGTPGQRVTISCSGSSSNIGSNIVNWYQQLPGTAPKLLIYSNNQRPSGVPDRFSGSKSGTSASLAISGLQSEDEADYYCAAWDDSLKGYVFGGGTKLTVLGGSGGSEVQLVESGGGLVQPGGSLRLSCAASGFTFSTYAMNWVRQAPGKGLEWVGRIRSKYNNYATYYADSVKDRFTISRDDSKNSLYLQMNSLKTEDTAVYYCARHGNFGNSYVSYFAYWGQGTLVTVSSAAAGSHHHHHH
# B16: CD33/CD3 2×2 T-cell engager 22 (bispecific antibody)
# chain: B15 chain with A149G, Y168I, N175H, I275T, N277K, P298S, T312S, K339N
# B17: CD33/CD3 2×2 T-cell engager 24 (bispecific antibody)
# chain: DIQMTQSPSSLSASVGDRVTITCRSSTGAVTTSNYANWVQQKPGKAPKALIGGTNKRAPGVPSRFSGSLIGDKATLTISSLQPEDFATYYCALWYSNLWVFGQGTKVEIKGGSGGSQVQLVQSGAEVKKPGSSVKVSCKASGGTFDSYAISWVRQAPGQGLEWMGGIIPIFGSAHYSQKFQGRVTITADESTSTAYMELSSLRSEDTAVYYCAREYYYDSSEWAFDIWGQGTLVTVSSGGSGQSVLTQPPSASGTPGQRVTISCSGSSSNIGDNVVNWYQQLPGTAPKLLIYSTNKRPSGVPDRFSGSKSGSSASLAISGLQSEDEADYYCAAWDDSLSAYVFGGGTKLTVLGGSGGSEVQLVESGGGLVQPGGSLRLSCAASGFTFSTYAMNWVRQAPGKGLEWVGRIRSKYNNYATYYADSVKDRFTISRDDSKNSLYLQMNSLKTEDTAVYYCARHGNFGNSYVSYFAYWGQGTLVTVSSAAAGSHHHHHH
# B18: CD33/CD3 2×2 T-cell engager 07 (bispecific antibody)
# chain: DIQMTQSPSSLSASVGDRVTITCRSSTGAVTTSNYANWVQQKPGKAPKALIGGTNKRAPGVPSRFSGSLIGDKATLTISSLQPEDFATYYCALWYSNLWVFGQGTKVEIKGGSGGSQVQLQESGGGVVQPGRSLRLSCAASGFSFSNYGIHWVRQAPGKGLEWVALISYDGNKKFYADSVKGRFAISRDTSKNTVDLQMTSLRPEDTAVYYCAKDRLESAAFDYWGQGTLVTVSSGGSGGSSYELTQPPSVSVAPGQTAMITCGGNNIGSTTVHWYQQKPGQAPVLVVYDDNERPSGIPERFSGSNSGSTATLTINRVEAGDEADYYCQVWDSGSDHVVFGGGTKLTVLGGSGGSEVQLVESGGGLVQPGGSLRLSCAASGFTFSTYAMNWVRQAPGKGLEWVGRIRSKYNNYATYYADSVKDRFTISRDDSKNSLYLQMNSLKTEDTAVYYCARHGNFGNSYVSYFAYWGQGTLVTVSSAAAGSHHHHHH
# Target: human CD3 (human, UniProt P07766 23-207; P09693 23-182; P04234 22-171; P20963 22-164)
# Experiment: cell-based or functional assay
# human CD3, sequence (P07766 23-207, chain 1 of 4): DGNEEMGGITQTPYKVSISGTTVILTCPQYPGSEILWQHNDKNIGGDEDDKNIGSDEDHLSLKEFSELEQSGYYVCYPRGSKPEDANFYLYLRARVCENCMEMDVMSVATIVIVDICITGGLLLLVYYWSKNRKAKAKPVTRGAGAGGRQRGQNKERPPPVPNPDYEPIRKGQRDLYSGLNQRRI
# human CD3, sequence (P09693 23-182, chain 2 of 4): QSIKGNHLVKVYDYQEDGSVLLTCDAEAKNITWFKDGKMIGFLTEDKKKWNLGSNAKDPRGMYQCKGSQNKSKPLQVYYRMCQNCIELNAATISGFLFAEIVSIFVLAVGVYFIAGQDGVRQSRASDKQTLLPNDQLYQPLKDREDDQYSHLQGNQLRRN
# human CD3, sequence (P04234 22-171, chain 3 of 4): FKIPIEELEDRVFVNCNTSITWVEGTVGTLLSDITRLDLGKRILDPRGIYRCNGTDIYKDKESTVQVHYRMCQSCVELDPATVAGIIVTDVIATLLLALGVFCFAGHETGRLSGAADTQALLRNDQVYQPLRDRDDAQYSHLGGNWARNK
# human CD3, sequence (P20963 22-164, chain 4 of 4): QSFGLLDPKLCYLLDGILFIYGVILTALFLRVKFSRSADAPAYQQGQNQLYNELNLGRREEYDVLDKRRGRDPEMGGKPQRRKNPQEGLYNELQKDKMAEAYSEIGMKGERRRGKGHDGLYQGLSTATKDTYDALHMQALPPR
Binder,"CD25 Induction EC50 (PBMC, 24 h)","CD69 Induction EC50 (PBMC, 24 h)"
B1,0.01 nM,0.006 nM
B2,0.011 nM,0.007 nM
B3,0.03 nM,0.022 nM
B4,0.117 nM,0.087 nM
B5,0.006 nM,0.007 nM
B6,0.011 nM,0.005 nM
B7,0.042 nM,0.027 nM
B8,0.094 nM,0.062 nM
B9,0.092 nM,0.091 nM
B10,0.041 nM,0.017 nM
B11,0.03 nM,0.114 nM
B12,0.098 nM,0.075 nM
B13,0.116 nM,0.074 nM
B14,0.039 nM,0.021 nM
B15,,0.225 nM
B16,0.01 nM,0.004 nM
B17,,0.057 nM
B18,0.134 nM,0.065 nM
